Assay results from patent publication US20040197795A1 (published 2004).

Target: T1, RNase I, an RNase from E. coli (Promega Cat. #M4261) (E. coli, UniProt P21338 24-268)
T1 sequence (looked up): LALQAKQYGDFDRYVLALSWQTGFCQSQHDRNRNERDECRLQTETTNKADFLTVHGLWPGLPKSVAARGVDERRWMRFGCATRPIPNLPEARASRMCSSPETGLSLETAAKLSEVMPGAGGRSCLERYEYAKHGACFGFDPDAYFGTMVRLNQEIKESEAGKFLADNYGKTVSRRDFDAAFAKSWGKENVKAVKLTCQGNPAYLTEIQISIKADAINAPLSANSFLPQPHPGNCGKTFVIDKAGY
Assay: cell-based or functional assay

% inhibition of RNase; RNasin Plus-brand inhibitor without DTT increased 10-fold (10×); 58° C.: 100%
B1: "RNasin Plus"-brand RNase inhibitor (recombinant rat-derived RNase inhibitor protein, Promega Pt # N261) (other, UniProt P29315 1-456, looked up)
chain: MSLDIQCEQLSDARWTELLPLIQQYQVVRLDDCGLTEVRCKDIRSAIQANPALTELSLRTNELGDAGVGLVLQGLQNPTCKIQKLSLQNCSLTEAGCGVLPDVLRSLSTLRELHLNDNPLGDEGLKLLCEGLRDPQCRLEKLQLEYCNLTATSCEPLASVLRVKPDFKELVLSNNDFHEAGIHTLCQGLKDSACQLESLKLENCGITSANCKDLCDVVASKASLQELDLGSNKLGNTGIAALCSGLLLPSCRLRTLWLWDCDVTAEGCKDLCRVLRAKQSLKELSLAGNELKDEGAQLLCESLLEPGCQLESLWVKTCSLTAASCPHFCSVLTKNRSLFELQMSSNPLGDSGVVELCKALGYPDTVLRVLWLGDCDVTDSGCSSLATVLLANRSLRELDLSNNCMGDNGVLQLLESLKQPSCILQQLVLYDIYWTDEVEDQLRALEEERPSLRIIS
